Reference: patent publication US20080166343A1 (CSL, published 2008)

Columns and labels:
[1] = target: T1, human IL-13Rα1 on cells (NHDF cells; cells of whole human blood) (human, UniProt P78552 27-427); experiment: cell-based or functional assay
T1 sequence: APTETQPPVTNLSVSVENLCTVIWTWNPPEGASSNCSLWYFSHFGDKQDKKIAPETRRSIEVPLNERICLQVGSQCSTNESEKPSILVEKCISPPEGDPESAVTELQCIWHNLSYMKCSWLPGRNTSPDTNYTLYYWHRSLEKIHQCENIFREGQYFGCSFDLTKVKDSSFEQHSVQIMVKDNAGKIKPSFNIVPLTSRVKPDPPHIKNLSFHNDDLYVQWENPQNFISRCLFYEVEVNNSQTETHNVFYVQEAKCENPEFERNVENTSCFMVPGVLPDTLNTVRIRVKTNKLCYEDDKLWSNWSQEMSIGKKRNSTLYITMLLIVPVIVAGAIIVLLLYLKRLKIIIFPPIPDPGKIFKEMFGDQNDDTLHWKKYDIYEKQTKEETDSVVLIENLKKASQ

[2] = target: T1, human IL-13Rα1 on cells (NHDF cells; …); experiment: cell-based or functional assay; remark: listed apart in the source

EC50, inhibition of eotaxin release from NHDF cells upon stimulation by IL-13 [1]: 0.614 mg/L
EC50, inhibition of eotaxin release from NHDF cells upon stimulation by IL-4 [2]: 0.983 mg/L
B1: 10G5-3 (antibody, human IgG4 S228P, kappa, V domains shown)
VH: EVQLVQSGAEVKKPGESLKISCKGSGYSFTSYWIGWVRQMPGKGLEWMGVIYPGDSYTRYSPSFQGQVTISADKSISTAYLQWSSLKASDTAMYYCARMPNWGSFDYWGQGTLVTVSS
VL: EIVLTQSPGTLSLSPGERATLSCRASQSISSSYLAWYQQKPGQAPRLLIYGASSRATGIPDRFSGSGSGTDFTLTISRLEPEDFAVYYCQQYEAFGQGTKVEIKR
